# Results published in the supplement of paper PMC11246515.
# ± gives the standard deviation of the averaged measurements.
# Assay: total protein half-life in vivo (active degradation + dilution); higher = more stable protein
# [1] = E. coli NCM3722 delta-clpP delta-lon delta-hslV, growth: N-lim chemostat, doubling time 6 h
# [2] = E. coli NCM3722 delta-clpP, growth: N-lim chemostat, doubling time 6 h
# [3] = E. coli NCM3722 delta-hslV, growth: N-lim chemostat, doubling time 6 h
# [4] = E. coli NCM3722 delta-lon, growth: N-lim chemostat, doubling time 6 h
# [5] = E. coli NCM3722 delta-smpB, growth: N-lim chemostat, doubling time 6 h
# [6] = wild type E. coli NCM3722, growth: C-lim chemostat, doubling time 3 h
# [7] = wild type E. coli NCM3722, growth: C-lim chemostat, doubling time 6 h
# [8] = wild type E. coli NCM3722, growth: C-lim chemostat, doubling time 12 h
# [9] = wild type E. coli NCM3722, growth: N-lim chemostat, doubling time 6 h
# [10] = wild type E. coli NCM3722, growth: N-lim chemostat, doubling time 12 h
# [11] = wild type E. coli NCM3722, growth: P-lim chemostat, doubling time 6 h
# [12] = wild type E. coli NCM3722, growth: P-lim chemostat, doubling time 12 h
sequence,measurement,setting,value
MFDNLTDRLSRTLRNISGRGRLTEDNVKDTLREVRMALLEADVALPVVREFINRVKEKAVGHEVNKSLTPGQEFVKIVRNELVAAMGEENQTLNLAAQPPAVVLMAGLQGAGKTTSVGKLGKFLREKHKKKVLVVSADVYRPAAIKQLETLAEQVGVDFFPSDVGQKPVDIVNAALKEAKLKFYDVLLVDTAGRLHVDEAMMDEIKQVHASINPVETLFVVDAMTGQDAANTAKAFNEALPLTGVVLTKVDGDARGGAALSIRHITGKPIKFLGVGEKTEALEPFHPDRIASRILGMGDVLSLIEDIESKVDRAQAEKLASKLKKGDGFDLNDFLEQLRQMKNMGGMASLMGKLPGMGQIPDNVKSQMDDKVLVRMEAIINSMTMKERAKPEIIKGSRKRRIAAGCGMQVQDVNRLLKQFDDMQRMMKKMKKGGMAKMMRSMKGMMPPGFPGR [P0AGD7],total protein half-life in vivo,[1],5.51 ± 0.064 h
same,total protein half-life in vivo,[2],5.31 ± 0.54 h
same,total protein half-life in vivo,[3],4.4 ± 0.073 h
same,total protein half-life in vivo,[4],5.49 ± 0.42 h
same,total protein half-life in vivo,[5],4.58 ± 0.087 h
same,total protein half-life in vivo,[6],2.85 ± 0.033 h
same,total protein half-life in vivo,[7],4.898 ± 0.04 h
same,total protein half-life in vivo,[8],8.739 ± 0.073 h
same,total protein half-life in vivo,[9],4.28 ± 0.099 h
same,total protein half-life in vivo,[10],7.9 ± 0.14 h
same,total protein half-life in vivo,[11],4.6 ± 0.13 h
same,total protein half-life in vivo,[12],9.883 ± 0.071 h
MFDSLAKAGKYLGQAAKLMIGMPDYDNYVEHMRVNHPDQTPMTYEEFFRERQDARYGGKGGARCC [P0AAS9],total protein half-life in vivo,[6],1.43 h
same,total protein half-life in vivo,[7],1.49 ± 0.45 h
same,total protein half-life in vivo,[8],1.47 h
MFEYLPELMKGLHTSLTLTVASLIVALILALIFTIILTLKTPVLVWLVRGYITLFTGTPLLVQIFLIYYGPGQFPTLQEYPALWHLLSEPWLCALIALSLNSAAYTTQLFYGAIRAIPEGQWQSCSALGMSKKDTLAILLPYAFKRSLSSYSNEVVLVFKSTSLAYTITLMEVMGYSQLLYGRTYDVMVFGAAGIIYLVVNGLLTLMMRLIERKALAFERRN [P0AE30],total protein half-life in vivo,[1],5.31 h
same,total protein half-life in vivo,[2],6.27 h
same,total protein half-life in vivo,[4],5.01 h
same,total protein half-life in vivo,[7],5.55 h
same,total protein half-life in vivo,[9],5.22 h
same,total protein half-life in vivo,[11],6.32 h
same,total protein half-life in vivo,[12],11 h
MFHCPLCQHAAHARTSRYITDTTKERYHQCQNVNCSATFITYESVQRYIVKPGEVHVVRPHPLPSGQQIMWM,total protein half-life in vivo,[1],5.58 ± 1.3 h
MFHRLWTLIRKELQSLLREPQTRAILILPVLIQVILFPFAATLEVTNATIAIYDEDNGEHSVELTQRFARASAFTHVLLLKSPQEIRPTIDTQKALLLVRFPADFSRKLDTFQTAPLQLILDGRNSNSAQIAANYLQQIVKNYQQELLEGKPKPNNSELVVRNWYNPNLDYKWFVVPSLIAMITTIGVMIVTSLSVAREREQGTLDQLLVSPLTTWQIFIGKAVPALIVATFQATIVLAIGIWAYQIPFAGSLALFYFTMVIYGLSLVGFGLLISSLCSTQQQAFIGVFVFMMPAILLSGYVSPVENMPVWLQNLTWINPIRHFTDITKQIYLKDASLDIVWNSLWPLLVITATTGSAAYAMFRRKVM [P0AFP9],total protein half-life in vivo,[2],6.75 ± 1.4 h
same,total protein half-life in vivo,[3],> 8 h
same,total protein half-life in vivo,[4],7.11 h
same,total protein half-life in vivo,[5],5.25 ± 0.36 h
same,total protein half-life in vivo,[6],3.51 h
same,total protein half-life in vivo,[7],6.05 ± 0.27 h
same,total protein half-life in vivo,[8],12.97 ± 0.071 h
same,total protein half-life in vivo,[9],6.33 ± 0.16 h
same,total protein half-life in vivo,[10],12.1 ± 1.1 h
same,total protein half-life in vivo,[11],6.38 h
MFIGFDYGTANCSVAVMRDGKPHLLKMENDSTLLPSMLCAPTREAVSEWLYRHHDVPADDDETQALLRRAIRYNREEDIDVTAKSVQFGLSSLAQYIDDPEEVWFVKSPKSFLGASGLKPQQVALFEDLVCAMMLHIRQQAQAQLPEAITQAVIGRPINFQGLGGDEANTQAQGILERAAKRAGFRDVVFQYEPVAAGLDYEATLQEEKRVLVVDIGGGTTDCSLLLMGPQWRSRLDREASLLGHSGCRIGGNDLDIALAFKNLMPLLGMGGETEKGIALPILPWWNAVAINDVPAQSDFYSSANGRLLNDLVRDAREPEKVALLQKVWRQRLSYRLVRSAEECKIALSSVAETRASLPFISNELATLISQRGLESALSQPLTRILEQVQLALDNAQEKPDVIYLTGGSARSPLIKKALAEQLPGIPIAGGDDFGSVTAGLARWAEVVFR,total protein half-life in vivo,[1],4.24 ± 0.21 h
same,total protein half-life in vivo,[2],3.46 ± 0.21 h
same,total protein half-life in vivo,[3],3.42 ± 0.99 h
same,total protein half-life in vivo,[4],3.061 ± 0.019 h
same,total protein half-life in vivo,[5],2.69 ± 0.13 h
same,total protein half-life in vivo,[6],2.8 ± 0.11 h
same,total protein half-life in vivo,[7],5.13 ± 0.5 h
same,total protein half-life in vivo,[8],9.46 ± 2.2 h
same,total protein half-life in vivo,[9],3.1 h
same,total protein half-life in vivo,[10],3.87 h
same,total protein half-life in vivo,[11],4.93 ± 0.058 h
same,total protein half-life in vivo,[12],7.96 ± 0.29 h
MFIRAPNFGRKLLLTCIVAGVMIAILVSCLQFLVAWHKHEVKYDTLITDVQKYLDTYFADLKSTTDRLQPLTLDTCQQANPELTARAAFSMNVRTFVLVKDKKTFCSSATGEMDIPLNELIPALDINKNVDMAILPGTPMVPNKPAIVIWYRNPLLKNSGVFAALNLNLTPSLFYSSRQEDYDGVALIIGNTALSTFSSRLMNVNELTDMPVRETKIAGIPLTVRLYADDWTWNDVWYAFLLGGMSGTVVGLLCYYLMSVRMRPGREIMTAIKREQFYVAYQPVVDTQALRVTGLEVLLRWRHPVAGEIPPDAFINFAESQKMIVPLTQHLFELIARDAAELEKVLPVGVKFGINIAPDHLHSESFKADIQKLLTSLPAHHFQIVLEITERDMLKEQEATQLFAWLHSVGVEIAIDDFGTGHSALIYLERFTLDYLKIDRGFINAIGTETITSPVLDAVLTLAKRLNMLTVAEGVETPEQARWLSERGVNFMQGYWISRPLPLDDFVRWLKKPYTPQW,total protein half-life in vivo,[1],6.645 ± 0.021 h
same,total protein half-life in vivo,[2],6.81 ± 0.3 h
same,total protein half-life in vivo,[3],6.17 ± 0.16 h
same,total protein half-life in vivo,[4],6.55 ± 1 h
same,total protein half-life in vivo,[5],5.84 ± 0.17 h
same,total protein half-life in vivo,[7],5.92 ± 1.2 h
same,total protein half-life in vivo,[8],10.5 ± 0.13 h
same,total protein half-life in vivo,[9],5.91 ± 0.13 h
same,total protein half-life in vivo,[10],11.2 ± 0.95 h
same,total protein half-life in vivo,[11],5.7999 ± 0.0026 h
same,total protein half-life in vivo,[12],10.4 ± 0.3 h
MFKFLVLTLGIISCQAYAEDTVIVNDHDISAIKDCWQKNSDDDTDVNVIKSCLRQEYNLVDAQLNKAYGEAYRYIEQVPRTGVKKPDTEQLNLLKKSQRAWLDFRDKECELILSNEDVQDLSDPYSESEWLSCMIIQTNTRTRQLQLYRNSEDFYPSPLTRG,total protein half-life in vivo,[3],6.44 h
MFKKGLLALALVFSLPVFAAEHWIDVRVPEQYQQEHVQGAINIPLKEVKERIATAVPDKNDTVKVYCNAGRQSGQAKEILSEMGYTHVENAGGLKDIAMPKVKG,total protein half-life in vivo,[4],2.7 ± 0.26 h
same,total protein half-life in vivo,[5],2.61 h
same,total protein half-life in vivo,[6],1.97 ± 0.051 h
same,total protein half-life in vivo,[7],2.89 h
same,total protein half-life in vivo,[8],3.42 ± 0.39 h
same,total protein half-life in vivo,[12],3.19 h
